{"source": "paper PMC11239674", "test_in_all_cases": "MST", "key": {"[1]": {"biological_target": "T1, AtGRP7short (Arabidopsis thaliana) (UniProt Q03250)", "T1 sequence": "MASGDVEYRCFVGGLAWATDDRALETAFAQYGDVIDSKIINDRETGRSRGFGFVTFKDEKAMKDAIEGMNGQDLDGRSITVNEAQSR", "details": "25 mM Tris-HCl pH 8.0, 150 mM NaCl (150 mM LiCl for Sc1 LiCl), 1 mM DTT, 0.1 mg/ml BSA; 20 nM Cy5-RNA; about 2 min incubation; temperature not stated; low values mean tight binding"}, "[2]": {"biological_target": "T2, AtBnGRP7 (Arabidopsis thaliana / Brassica napus chimera) (UniProt Q03250)", "T2 sequence": "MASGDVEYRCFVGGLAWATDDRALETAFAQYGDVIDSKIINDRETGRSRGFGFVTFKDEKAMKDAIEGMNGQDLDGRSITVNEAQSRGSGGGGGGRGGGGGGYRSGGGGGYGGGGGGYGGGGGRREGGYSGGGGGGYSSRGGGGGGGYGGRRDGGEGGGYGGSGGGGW", "details": "25 mM Tris-HCl pH 8.0, 150 mM NaCl (150 mM LiCl for Sc1 LiCl), 1 mM DTT, 0.1 mg/ml BSA; 20 nM Cy5-RNA; about 2 min incubation; temperature not stated; low values mean tight binding"}, "[3]": {"biological_target": "T3, AtGRP7StoE S132E;S139E (Arabidopsis thaliana) (UniProt Q03250)", "T3 sequence": "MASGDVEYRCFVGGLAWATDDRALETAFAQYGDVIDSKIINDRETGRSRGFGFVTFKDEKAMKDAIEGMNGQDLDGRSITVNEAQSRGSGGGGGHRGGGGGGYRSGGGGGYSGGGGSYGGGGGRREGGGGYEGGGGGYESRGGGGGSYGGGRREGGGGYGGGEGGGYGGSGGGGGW", "details": "25 mM Tris-HCl pH 8.0, 150 mM NaCl (150 mM LiCl for Sc1 LiCl), 1 mM DTT, 0.1 mg/ml BSA; 20 nM Cy5-RNA; about 2 min incubation; temperature not stated; low values mean tight binding"}, "[4]": {"biological_target": "T4, eYFP-AtGRP7RGG (Arabidopsis thaliana) (UniProt Q03250)", "T4 sequence": "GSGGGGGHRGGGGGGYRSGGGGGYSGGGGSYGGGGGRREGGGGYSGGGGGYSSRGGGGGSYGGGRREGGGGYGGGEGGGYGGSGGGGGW", "details": "25 mM Tris-HCl pH 8.0, 150 mM NaCl (150 mM LiCl for Sc1 LiCl), 1 mM DTT, 0.1 mg/ml BSA; 20 nM Cy5-RNA; about 2 min incubation; temperature not stated; low values mean tight binding"}, "BnGRP7 (Brassica napus) [5]": {"biological_target": "T5, BnGRP7 (Brassica napus) (UniProt A0A078J5Z4)", "T5 sequence": "T2 sequence with G4P, A29S, Y31F, I35L, A61S", "details": "25 mM Tris-HCl pH 8.0, 150 mM NaCl (150 mM LiCl for Sc1 LiCl), 1 mM DTT, 0.1 mg/ml BSA; 20 nM Cy5-RNA; about 2 min incubation; temperature not stated; low values mean tight binding"}, "[6]": {"biological_target": "T6, AtGRP7StoG S132G;S139G (Arabidopsis thaliana) (UniProt Q03250)", "T6 sequence": "T3 sequence with E132G, E139G", "details": "25 mM Tris-HCl pH 8.0, 150 mM NaCl (150 mM LiCl for Sc1 LiCl), 1 mM DTT, 0.1 mg/ml BSA; 20 nM Cy5-RNA; about 2 min incubation; temperature not stated; low values mean tight binding"}, "[7]": {"biological_target": "T7, AtGRP7 (Arabidopsis thaliana) (UniProt Q03250)", "T7 sequence": "T3 sequence with E132S, E139S", "details": "25 mM Tris-HCl pH 8.0, 150 mM NaCl (150 mM LiCl for Sc1 LiCl), 1 mM DTT, 0.1 mg/ml BSA; 20 nM Cy5-RNA; about 2 min incubation; temperature not stated; low values mean tight binding"}, "[8]": {"biological_target": "T8, AtGRP7YtoE Y103E;Y111E;Y118E;Y131E;Y138E;Y148E;Y159E;Y167E (Arabidopsis thaliana) (UniProt Q03250)", "T8 sequence": "T3 sequence with Y103E, Y111E, Y118E, Y131E, E132S, Y138E, E139S, Y148E, Y159E, Y167E", "details": "25 mM Tris-HCl pH 8.0, 150 mM NaCl (150 mM LiCl for Sc1 LiCl), 1 mM DTT, 0.1 mg/ml BSA; 20 nM Cy5-RNA; about 2 min incubation; temperature not stated; low values mean tight binding"}, "[9]": {"biological_target": "T9, AtGRP7YtoG Y103G;Y111G;Y118G;Y131G;Y138G;Y148G;Y159G;Y167G (Arabidopsis thaliana) (UniProt Q03250)", "T9 sequence": "T3 sequence with Y103G, Y111G, Y118G, Y131G, E132S, Y138G, E139S, Y148G, Y159G, Y167G", "details": "25 mM Tris-HCl pH 8.0, 150 mM NaCl (150 mM LiCl for Sc1 LiCl), 1 mM DTT, 0.1 mg/ml BSA; 20 nM Cy5-RNA; about 2 min incubation; temperature not stated; low values mean tight binding"}, "[10]": {"test_system": "AtGRP7StoG (Arabidopsis thaliana)", "details": "MST: 25 mM Tris-HCl pH 8.0, 150 mM NaCl, 1 mM DTT, 0.1 mg/ml BSA; 20 nM Cy5-RNA; protein titrated from 50-75 uM; about 2 min incubation; temperature not stated"}, "[11]": {"test_system": "AtGRP7StoE (Arabidopsis thaliana)", "details": "MST: 25 mM Tris-HCl pH 8.0, 150 mM NaCl, 1 mM DTT, 0.1 mg/ml BSA; 20 nM Cy5-RNA; protein titrated from 50-75 uM; about 2 min incubation; temperature not stated"}, "[12]": {"test_system": "AtGRP7YtoG (Arabidopsis thaliana)", "details": "MST: 25 mM Tris-HCl pH 8.0, 150 mM NaCl, 1 mM DTT, 0.1 mg/ml BSA; 20 nM Cy5-RNA; protein titrated from 50-75 uM; about 2 min incubation; temperature not stated"}, "[13]": {"test_system": "AtBnGRP7 (Arabidopsis thaliana / Brassica napus chimera)", "details": "MST: 25 mM Tris-HCl pH 8.0, 150 mM NaCl, 1 mM DTT, 0.1 mg/ml BSA; 20 nM Cy5-RNA; protein titrated from 50-75 uM; about 2 min incubation; temperature not stated"}, "[14]": {"test_system": "AtGRP7 (Arabidopsis thaliana)", "details": "MST: 25 mM Tris-HCl pH 8.0, 150 mM NaCl, 1 mM DTT, 0.1 mg/ml BSA; 20 nM Cy5-RNA; protein titrated from 50-75 uM; about 2 min incubation; temperature not stated"}, "BnGRP7 (Brassica napus) [15]": {"test_system": "BnGRP7 (Brassica napus)", "details": "MST: 25 mM Tris-HCl pH 8.0, 150 mM NaCl, 1 mM DTT, 0.1 mg/ml BSA; 20 nM Cy5-RNA; protein titrated from 50-75 uM; about 2 min incubation; temperature not stated"}, "[16]": {"test_system": "eYFP-AtGRP7RGG (Arabidopsis thaliana)", "details": "MST: 25 mM Tris-HCl pH 8.0, 150 mM NaCl, 1 mM DTT, 0.1 mg/ml BSA; 20 nM Cy5-RNA; protein titrated from 50-75 uM; about 2 min incubation; temperature not stated"}, "[17]": {"test_system": "AtGRP7short (Arabidopsis thaliana)", "details": "MST: 25 mM Tris-HCl pH 8.0, 150 mM NaCl, 1 mM DTT, 0.1 mg/ml BSA; 20 nM Cy5-RNA; protein titrated from 50-75 uM; about 2 min incubation; temperature not stated"}, "[18]": {"biological_target": "T7, AtGRP7 (Arabidopsis thaliana)", "details": "25 mM Tris-HCl pH 8.0, 150 mM NaCl (150 mM LiCl for Sc1 LiCl), 1 mM DTT, 0.1 mg/ml BSA; 20 nM Cy5-RNA; about 2 min incubation; temperature not stated; low values mean tight binding", "remark": "listed apart in the source"}}, "note": "Residue numbers refer to the chain shown, from its start.", "data": [{"substance": "AUUUUGUUCUGGUUCUGCUUUAGAUUUGAUGU [AtGRP7 3'UTR fragment (7-UTR-WT, 32 nt)]", "values": [{"measurement": "Kd", "setting": "[1]", "value": 12.2, "unit": "µM"}, {"measurement": "Kd", "setting": "[2]", "value": 0.018, "unit": "µM"}, {"measurement": "Kd", "setting": "[3]", "value": 0.072, "unit": "µM"}, {"measurement": "Kd", "setting": "[4]", "value": 0.031, "unit": "µM"}, {"measurement": "Kd", "setting": "BnGRP7 (Brassica napus) [5]", "value": 0.017, "unit": "µM"}, {"measurement": "Kd", "setting": "[6]", "value": 0.052, "unit": "µM"}, {"measurement": "Kd", "setting": "[7]", "value": 0.158, "unit": "µM"}, {"measurement": "Kd", "setting": "[8]", "value": 0.701, "unit": "µM"}, {"measurement": "Kd", "setting": "[9]", "value": 0.356, "unit": "µM"}]}, {"substance": "AtCOR15A pre-mRNA", "values": [{"measurement": "Kd", "setting": "[10]", "value": 2.23, "unit": "µM"}, {"measurement": "Kd", "setting": "[11]", "value": 0.738, "unit": "µM"}, {"measurement": "Kd", "setting": "[12]", "value": 3.75, "unit": "µM"}, {"measurement": "Kd", "setting": "[13]", "value": 0.741, "unit": "µM"}, {"measurement": "Kd", "setting": "[14]", "value": 0.15, "unit": "µM"}, {"measurement": "Kd", "setting": "BnGRP7 (Brassica napus) [15]", "value": 0.323, "unit": "µM"}]}, {"substance": "AtGRP7 3'UTR fragment (7-UTR-WT)", "values": [{"measurement": "Kd", "setting": "[16]", "value": 0.031, "unit": "µM"}, {"measurement": "Kd", "setting": "[14]", "value": 0.16, "unit": "µM"}]}, {"substance": "AtGRP7 CDS RNA", "values": [{"measurement": "Kd", "setting": "[16]", "value": 2.1, "unit": "µM"}, {"measurement": "Kd", "setting": "[14]", "value": 0.182, "unit": "µM"}]}, {"substance": "BnPARCL CDS RNA", "values": [{"measurement": "Kd", "setting": "[14]", "value": 0.0997, "unit": "µM"}, {"measurement": "Kd", "setting": "[17]", "value": 4.07, "unit": "µM"}]}, {"substance": "GCUGCGGUGUGGAAGGAGUGGUCGGGUUGCGCAGCG [Sc1 G-quadruplex RNA]", "values": [{"measurement": "Kd", "setting": "[7]", "value": 6.9, "unit": "µM"}, {"measurement": "Kd", "setting": "[18]", "value": 0.463, "unit": "µM"}]}, {"substance": "GGAUGGCGUCCGGUGAUGUUGAGUAUCGGUGCUUCGUUGGAGGUCUAGCAUGGGCCACUGAUGACAGAGCUCUUGAGACUGCCUUCGCUCAAUACGGCGACGUUAUUGAUUCCAAGAUCAUUAACGAUCGUGAGACUGGAAGAUCAAGGGGAUUCGGAUUCGUCACCUUCAAGGAUGAGAAAGCCAUGAAGGAUGCGAUUGAGGGAAUGAACGGACAAGAUCUCGAUGGCCGUAGCAUCACUGUUAACGAGGCUCAGUCACGAGGAAGCGGUGGCGGCGGAGGCCACCGUGGAGGUGGUGGCGGUGGAUACCGCAGCGGCGGUGGUGGAGGUUACUCCGGUGGAGGUGGUAGCUACGGAGGUGGCGGCGGUAGACGCGAGGGUGGAGGAGGAUACAGCGGCGGCGGCGGCGGUUACUCCUCAAGAGGUGGUGGUGGCGGAAGCUACGGUGGUGGAAGACGUGAGGGAGGAGGAGGAUACGGUGGUGGUGAAGGAGGAGGUUACGGAGGAAGCGGUGGUGGUGGAGGAUGGUAA [AtGRP7]", "values": [{"measurement": "Kd", "setting": "[2]", "value": 0.107, "unit": "µM"}, {"measurement": "Kd", "setting": "[3]", "value": 0.536, "unit": "µM"}, {"measurement": "Kd", "setting": "[4]", "value": 1.52, "unit": "µM"}, {"measurement": "Kd", "setting": "BnGRP7 (Brassica napus) [5]", "value": 3.72, "unit": "µM"}, {"measurement": "Kd", "setting": "[6]", "value": 1.17, "unit": "µM"}, {"measurement": "Kd", "setting": "[7]", "value": 0.182, "unit": "µM"}, {"measurement": "Kd", "setting": "[8]", "value": 5.4, "unit": "µM"}, {"measurement": "Kd", "setting": "[9]", "value": 7.39, "unit": "µM"}]}, {"substance": "miR164", "values": [{"measurement": "Kd", "setting": "[14]", "value": 0.042, "unit": "µM"}, {"measurement": "Kd", "setting": "BnGRP7 (Brassica napus) [15]", "value": 0.021, "unit": "µM"}, {"measurement": "Kd", "setting": "[17]", "value": 5.93, "unit": "µM"}]}]}
